In test [1] the test system is double-stranded DNA. The settings on record: average base pairs unwound in a single binding event; cited from earlier work.
Test [2] concerns HEK3 locus. In words: HACE editing assay at the HEK3 locus, amplicon sequencing. Type of test: cell-based, human. The settings on record: HEK293FT cells, HEs with and without UGI fusion. The source says:
An example HACE Editor (HE) protein was constructed by fusing a hyperactive mutant of activation-induced cytidine deaminase (AID*Δ) with a Geobacillus stearothermophilus PcrA helicase that was previously optimized for processivity (PcrA M6). […] After the nCas9 creates a nick, the HE may load at the nick, start unwinding the DNA, and generate random mutations in the process.
Separate plasmids expressing HE, nCas9, and a sgRNA targeting the HEK3 locus were transfected into HEK293FT cells. Cells were collected 72 hours after transfection, and editing rates were evaluated by amplicon sequencing. […] A strand bias with G>A substitutions occurring at a higher rate than C>T substitutions was detected, which likely reflects preferential repair of mismatches on the nicked strand. […]
For short amplicon (˜300 bp) sequencing for HEK293T and A375 cells, the target region was amplified from genomic DNA samples using Phusion U Hot Start PCR master mix (ThermoFisher Scientific, F562) in a 20 μL reaction. […] Amplicons were pooled and prepared for sequencing on a NextSeq (Illumina) with paired-end reads (read1, 160 bp; index1, 8 bp; index2, 8 bp; read2, 160 bp). Reads were demultiplexed and analyzed with appropriate pipelines. […]
Raw fastq reads obtained from sequencing were quality trimmed using BBduk(1) (BBMap v38.93) with the options “qtrim=r1 trimq=28 maq=25”. […]

Here are results for five molecules from US20250346885A1, “SYSTEMS AND METHODS FOR TARGETED CONTINUOUS GENOME MUTAGENESIS” (The Broad Institute, Inc., priority 2023, published 2025).

B1: Sgs1: helicase with short-range processivity (protein, UniProt P35187 1-1447, looked up)
ATP-dependent helicase SGS1: MVTKPSHNLRREHKWLKETATLQEDKDFVFQAIQKHIANKRPKTNSPPTTPSKDECGPGTTNFITSIPASGPTNTATKQHEVMQTLSNDTEWLSYTATSNQYADVPMVDIPASTSVVSNPRTPNGSKTHNFNTFRPHMASSLVENDSSRNLGSRNNNKSVIDNSSIGKQLENDIKLEVIRLQGSLIMALKEQSKLLLQKCSIIESTSLSEDAKRLQLSRDIRPQLSNMSIRIDSLEKEIIKAKKDGMSKDQSKGRSQVSSQDDNIISSILPSPLEYNTSSRNSNLTSTTATTVTKALAITGAKQNITNNTGKNSNNDSNNDDLIQVLDDEDDIDCDPPVILKEGAPHSPAFPHLHMTSEEQDELTRRRNMRSREPVNYRIPDRDDPFDYVMGKSLRDDYPDVEREEDELTMEAEDDAHSSYMTTRDEEKEENELLNQSDFDFVVNDDLDPTQDTDYHDNMDVSANIQESSQEGDTRSTITLSQNKNVQVILSSPTAQSVPSNGQNQIGVEHIDLLEDDLEKDAILDDSMSFSFGRQHMPMSHSDLELIDSEKENEDFEEDNNNNGIEYLSDSDLERFDEERENRTQVADIQELDNDLKIITERKLTGDNEHPPPSWSPKIKREKSSVSQKDEEDDFDDDFSLSDIVSKSNLSSKTNGPTYPWSDEVLYRLHEVFKLPGFRPNQLEAVNATLQGKDVFVLMPTGGGKSLCYQLPAVVKSGKTHGTTIVISPLISLMQDQVEHLLNKNIKASMFSSRGTAEQRRQTFNLFINGLLDLVYISPEMISASEQCKRAISRLYADGKLARIVVDEAHCVSNWGHDFRPDYKELKFFKREYPDIPMIALTATASEQVRMDIIHNLELKEPVFLKQSFNRTNLYYEVNKKTKNTIFEICDAVKSRFKNQTGIIYCHSKKSCEQTSAQMQRNGIKCAYYHAGMEPDERLSVQKAWQADEIQVICATVAFGMGIDKPDVRFVYHFTVPRTLEGYYQETGRAGRDGNYSYCITYFSFRDIRTMQTMIQKDKNLDRENKEKHLNKLQQVMAYCDNVTDCRRKLVLSYFNEDFDSKLCHKNCDNCRNSANVINEERDVTEPAKKIVKLVESIQNERVTIIYCQDVFKGSRSSKIVQANHDTLEEHGIGKSMQKSEIERIFFHLITIRVLQEYSIMNNSGFASSYVKVGPNAKKLLTGKMEIKMQFTISAPNSRPSTSSSFQANEDNIPVIAQKSTTIGGNVAANPPRFISAKEHLRSYTYGGSTMGSSHPITLKNTSDLRSTQELNNLRMTYERLRELSLNLGNRMVPPVGNFMPDSILKKMAAILPMNDSAFATLGTVEDKYRRRFKYFKATIADLSKKRSSEDHEKYDTILNDEFVNRAAASSNGIAQSTGTKSKFFGANLNEAKENEQIINQIRQSQLPKNTTSSKSGTRSISKSSKKSANGRRGFRNYRGHYRGRK
Take B1: in test [1], the processivity range result is on record as “about 100 base pairs”.

B2: TraI: E. coli helicase (protein)
chain: MAKIHMVLQGKGGVGKSAIAAIIAQYKMDKGQTPLCIDTDPVNATFEGYKALNVRRLNIMAGDEINSRNFDTLVELIAPTKDDVVIDNGASSFVPLSHYLISNQVPALLQEMGHELVIHTVVTGGQALLDTVSGFAQLASQFPAEALFVVWLNPYWGPIEHEGKSFEQMKAYTANKARVSSIIQIPALKEETYGRDFSDMLQERLTFDQALADESLTIMTRQRLKIVRRGLFEQLDAAAVL
In the case of B2, in test [1], the processivity range result is on record as “at least 850 base pairs”.

B3: Rep: helicase with short-range processivity (protein, UniProt P09980 1-673, looked up)
ATP-dependent DNA helicase Rep: MRLNPGQQQAVEFVTGPCLVLAGAGSGKTRVITNKIAHLIRGCGYQARHIAAVTFTNKAAREMKERVGQTLGRKEARGLMISTFHTLGLDIIKREYAALGMKANFSLFDDTDQLALLKELTEGLIEDDKVLLQQLISTISNWKNDLKTPSQAAASAIGERDRIFAHCYGLYDAHLKACNVLDFDDLILLPTLLLQRNEEVRKRWQNKIRYLLVDEYQDTNTSQYELVKLLVGSRARFTVVGDDDQSIYSWRGARPQNLVLLSQDFPALKVIKLEQNYRSSGRILKAANILIANNPHVFEKRLFSELGYGAELKVLSANNEEHEAERVTGELIAHHFVNKTQYKDYAILYRGNHQSRVFEKFLMQNRIPYKISGGTSFFSRPEIKDLLAYLRVLTNPDDDSAFLRIVNTPKREIGPATLKKLGEWAMTRNKSMFTASFDMGLSQTLSGRGYEALTRFTHWLAEIQRLAEREPIAAVRDLIHGMDYESWLYETSPSPKAAEMRMKNVNQLFSWMTEMLEGSELDEPMTLTQVVTRFTLRDMMERGESEEELDQVQLMTLHASKGLEFPYVYMVGMEEGFLPHQSSIDEDNIDEERRLAYVGITRAQKELTFTLCKERRQYGELVRPEPSRFLLELPQDDLIWEQERKVVSAEERMQKGQSHLANLKAMMAAKRGK
As to B3, the processivity range in test [1] was 30-50 base pairs.

B4: UvrD: E. coli helicase (protein, UniProt P03018 1-720, looked up)
DNA helicase II: MDVSYLLDSLNDKQREAVAAPRSNLLVLAGAGSGKTRVLVHRIAWLMSVENCSPYSIMAVTFTNKAAAEMRHRIGQLMGTSQGGMWVGTFHGLAHRLLRAHHMDANLPQDFQILDSEDQLRLLKRLIKAMNLDEKQWPPRQAMWYINSQKDEGLRPHHIQSYGNPVEQTWQKVYQAYQEACDRAGLVDFAELLLRAHELWLNKPHILQHYRERFTNILVDEFQDTNNIQYAWIRLLAGDTGKVMIVGDDDQSIYGWRGAQVENIQRFLNDFPGAETIRLEQNYRSTSNILSAANALIENNNGRLGKKLWTDGADGEPISLYCAFNELDEARFVVNRIKTWQDNGGALAECAILYRSNAQSRVLEEALLQASMPYRIYGGMRFFERQEIKDALSYLRLIANRNDDAAFERVVNTPTRGIGDRTLDVVRQTSRDRQLTLWQACRELLQEKALAGRAASALQRFMELIDALAQETADMPLHVQTDRVIKDSGLRTMYEQEKGEKGQTRIENLEELVTATRQFSYNEEDEDLMPLQAFLSHAALEAGEGQADTWQDAVQLMTLHSAKGLEFPQVFIVGMEEGMFPSQMSLDEGGRLEEERRLAYVGVTRAMQKLTLTYAETRRLYGKEVYHRPSRFIGELPEECVEEVRLRATVSRPVSHQRMGTPMVENDSGYKLGQRVRHAKFGEGTIVNMEGSGEHSRLQVAFQGQGIKWLVAAYARLESV
In the case of B4, the processivity range in test [1] was 30-40 base pairs.

B5: UGI: uracil DNA glycosylase inhibitor fused to the HACE editor (protein, UniProt P14739 1-84, looked up)
Uracil-DNA glycosylase …: MTNLSDIIEKETGKQLVIQESILMLPEEVEEVIGNKPESDILVHTAYDESTDENVMLLTSDAPEYKPWALVIQDSNGENKIKML
modifications: fused to HACE editor
For the molecule B5, the “effect of UGI fusion on editing levels for AID” value in test [2] is “significantly elevated the editing levels”.
